Measurements reported in patent US6960440 (TRUSTES OF COLUMBIA UNIVERSITY IN THE CITY OF NEW YORK, dated 2005).

Molecular target: the molecule itself
Test: SDS-PAGE and Western blot of NADE overexpressed in 293T cells, wild type against Cys-to-Ser mutants

B1: Myc-tagged mouse NADE expressed in 293T cells (pcDNA3.1(-)Myc-HisA/NADE) (other, not shown: small tags and cut ends)
chain: MANVHQENEEMEQPLQNGEEDRPVGGGEGHQPAGNNNNNNHNHNHNHHRRGQARRLAPNFRWAIPNRQMNDGLGGDGDDMEMFMEEMREIRRKLRELQLRNCLRILMGELSNHHDHHDEFCLMP
notes: It runs as 22 kDa and 44 kDa bands; also called Myc-tagged NADE; wild type NADE
Question: Does B1 bind?
Answer: binds
